Biological target: the molecule itself
Test: SEC

B1: SusD (residues 26-551) of Bacteroides thetaiotaomicron (domain or fragment, Bacteroides thetaiotaomicron ATCC 29148, UniProt Q8A1G2 26-551, looked up)
chain: INDLDISPIDPQTGGSFDQQGVFVKGYAMLGVTGQKGIDGSPDLDGQDEGESGFYRTTFNCNELPTDECLWAWQENQDIPQLTSISWSPSSQRTEWVYVRLGYDITQYNFFLDQTEGMTDAETLRQRAEIRFLRALHYWYFLDLFGKAPFKEHFSNDLPVEKKGTELYTYIQNELNEIEADMYEPRQAPFGRADKAANWLLRARLYLNAGVYTGQTDYAKAEEYASKVIGSAYKLCTNYSELFMADNDENENAMQEIILPIRQDGVKTRNYGGSTYLVCGTRVAGMPRMGTTNGWSCIFARAAMVQKFFSNLEDVPMLPADVEIPTKGLDTDEQIDAFDAEHGIRTEDMIKAAGDDRALLYSGVGGGRRKIQTDAISGFTDGLSIVKWQNYRSDGKPVSHATYPDTDIPLFRLAEAYLTRAEAIFRQGGDATGDINELRKRANCTRKVQTVTEQELIDEWAREFYLEGRRRSDLVRFGMFTTNKYLWDWKGGAMNGTSVASYYNKYPIPVSDINNNRNMSQNEGYK
stoichiometry N: 2
